Results reported in article PMC8149785.

How the values were obtained:
mouse C3b (mouse) = mouse C3b (mouse) (UniProt P01027); assay: SPR; C3b amine coupled to a C1 chip (233 RU murine, 258 RU human); FH flowed over, two-fold dilution series from 2 uM to 6 nM; BIAcore T200, 25°C, HBSP+ (10 mM HEPES, 150 mM NaCl, 0.05% P20); equilibrium data, 1:1 binding model
human C3b (human) = human C3b (human) (UniProt P01024); assay: as above

Substance: recombinant murine factor H (from UniProt P06909 19-1234) (natural protein)
- Kd (mouse C3b (mouse)): 1200 nM
- Kd (human C3b (human)): 1600 nM
